Laboratory results as given in patent publication US8658372.

Target: T1, botulinum toxoid B, P10844
T1 chain: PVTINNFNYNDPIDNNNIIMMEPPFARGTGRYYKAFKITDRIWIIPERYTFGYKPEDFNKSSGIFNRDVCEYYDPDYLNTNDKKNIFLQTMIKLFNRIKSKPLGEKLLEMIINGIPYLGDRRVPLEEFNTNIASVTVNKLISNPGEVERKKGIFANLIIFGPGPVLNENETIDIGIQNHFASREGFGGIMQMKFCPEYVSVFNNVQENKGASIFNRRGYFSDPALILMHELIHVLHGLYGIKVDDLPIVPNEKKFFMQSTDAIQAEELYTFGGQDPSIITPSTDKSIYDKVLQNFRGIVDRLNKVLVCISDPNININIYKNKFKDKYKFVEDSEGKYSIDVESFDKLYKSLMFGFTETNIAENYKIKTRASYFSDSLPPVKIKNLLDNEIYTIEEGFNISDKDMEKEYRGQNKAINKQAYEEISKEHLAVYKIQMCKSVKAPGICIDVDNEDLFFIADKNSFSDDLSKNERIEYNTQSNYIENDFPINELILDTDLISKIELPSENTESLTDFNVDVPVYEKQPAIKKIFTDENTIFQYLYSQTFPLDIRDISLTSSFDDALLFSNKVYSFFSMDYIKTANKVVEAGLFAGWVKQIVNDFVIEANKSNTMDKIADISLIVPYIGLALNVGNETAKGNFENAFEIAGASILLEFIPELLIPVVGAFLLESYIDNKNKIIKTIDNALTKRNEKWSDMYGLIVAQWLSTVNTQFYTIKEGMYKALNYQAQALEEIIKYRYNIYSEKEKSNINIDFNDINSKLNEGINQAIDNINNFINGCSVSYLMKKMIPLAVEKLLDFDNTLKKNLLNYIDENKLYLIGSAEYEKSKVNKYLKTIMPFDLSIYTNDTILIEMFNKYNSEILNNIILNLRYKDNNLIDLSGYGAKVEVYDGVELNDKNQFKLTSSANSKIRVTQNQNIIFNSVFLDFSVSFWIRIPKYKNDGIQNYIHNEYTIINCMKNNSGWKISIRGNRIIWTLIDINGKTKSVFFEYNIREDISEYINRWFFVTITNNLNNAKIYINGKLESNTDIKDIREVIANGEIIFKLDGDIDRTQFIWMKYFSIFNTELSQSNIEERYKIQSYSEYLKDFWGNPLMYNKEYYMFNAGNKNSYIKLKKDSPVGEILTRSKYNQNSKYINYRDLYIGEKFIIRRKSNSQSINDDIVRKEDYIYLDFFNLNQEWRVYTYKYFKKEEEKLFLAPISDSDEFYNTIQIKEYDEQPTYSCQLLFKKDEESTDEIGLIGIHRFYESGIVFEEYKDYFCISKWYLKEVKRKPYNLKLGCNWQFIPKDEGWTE

B1: Melittin (peptide)
peptide: GIGAVLKVLTTGLPALISWIKRKRQQ
modifications: not checked
Binder B1 has a limit of detection of under 5 ng/mL.
